T1: hCMV UL128 (expressed in HEK293T cells) (human cytomegalovirus, UniProt P16837 28-171)
T1 sequence: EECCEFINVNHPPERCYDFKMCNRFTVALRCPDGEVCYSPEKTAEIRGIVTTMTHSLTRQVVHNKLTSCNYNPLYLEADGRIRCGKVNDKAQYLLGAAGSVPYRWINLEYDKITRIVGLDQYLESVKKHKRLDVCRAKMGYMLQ

T2: hCMV gM + gN (co-expressed in HEK293T cells) (human cytomegalovirus, UniProt P16733 1-372; P16795 22-138)
T2 sequence 1: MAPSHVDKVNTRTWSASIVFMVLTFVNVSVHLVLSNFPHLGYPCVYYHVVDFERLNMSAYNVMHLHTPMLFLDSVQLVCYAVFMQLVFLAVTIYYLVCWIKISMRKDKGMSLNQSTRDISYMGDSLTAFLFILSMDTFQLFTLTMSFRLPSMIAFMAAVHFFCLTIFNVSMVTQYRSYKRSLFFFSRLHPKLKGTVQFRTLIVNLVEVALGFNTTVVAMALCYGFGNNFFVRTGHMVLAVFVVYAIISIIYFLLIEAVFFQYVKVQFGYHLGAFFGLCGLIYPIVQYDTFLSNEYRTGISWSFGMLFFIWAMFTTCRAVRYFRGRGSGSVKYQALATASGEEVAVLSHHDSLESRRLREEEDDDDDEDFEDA
T2 sequence 2: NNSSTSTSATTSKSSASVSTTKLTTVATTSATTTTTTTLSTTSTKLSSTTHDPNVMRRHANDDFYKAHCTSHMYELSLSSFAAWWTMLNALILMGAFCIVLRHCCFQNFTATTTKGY

B1: 5F1 (antibody, V domains shown)
VH: AVQLVESGGGLAQPGRSLRLSCKVSGFTFSSYEMNWVRQAPGKGLEWIAYIDFTGSTIYYADSVKGRFTISRDTARNSLYLQMNKLRVEDTAVYYCVRDAGRWGTSWYYFDYWGQGTLVTVSS
VL: QSVLTQPPSVSGAPGQRVTISCTGLSSNIGAGYDIHWYQQIPGKAPKLLIYGNNNRPSGVPDRFSGSKSGTSVSLAITGLQAEDEADYYCQSYDSSLNGWVFGGGTRLTVL
notes: human IgG; also called 5F1-biotin
B2: 10C6 (antibody, V domains shown)
VH: AVQLVESGGGLAQPGRSLRLSCKVSGFSFSNFEMNWVRQAPGKGLEWIAYIDFTGSTIYYSDSVKGRFTISRDTARNSLYLQMNKLRVEDTAVYYCVRDAGRWGTSWYYFDYWGQGTLVTVSS
VL: QSVLTQPPSVSGAPGQRVTISCTGLSSNIGAGYDIHWYQQIPGKAPKLLIYGNNNRPSGVPDRFSGSKSGTSVSLAITGLQAEDEADYYCQSYDSSLNGWVFGGGTRLTVL
notes: human IgG; also called 10C6-biotin
B3: 8I21 (antibody, V domains shown)
VH: LVELVESGGGVVQPGRSLRLSCAASGFTFSSDGMHWVRQSPGRGLEWVAFISSDGSTPYYADSVKGRFTISRDNSKNTLYLQMNSLRAEDTAMYFCAKDWALFRWLRTFDHWGQGTLVTVSS
VL: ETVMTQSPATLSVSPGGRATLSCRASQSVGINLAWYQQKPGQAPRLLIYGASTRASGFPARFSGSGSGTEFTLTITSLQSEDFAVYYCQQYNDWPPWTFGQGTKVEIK
B4: 15D8 (antibody, V domains shown)
VH: EVQLVQSGAEVKKPGESLKISCQASGYSFTNYWIAWVRQMPGKGLEWMGIIYPGDSDIKYSPSFRGQVTISADKSISNAFLQWRSLRASDTAMYYCARHAIRGDGFDYWGQGTLVTVSS
VL: SYELTQPPSVSVSPGQTATITCSGDKLGEKYACWYQQKPGQSPVLVMYQDTKRPSGIPERFSGSNSGNTATLTISGTRAMDEADYYCQAWDTNTVIFGGGTKLTVL
B5: 6L3 (antibody, V domains shown)
VH: EVRLEESGGGLVQPGGSLRLSCAASGFTVSTTYMAWVRQAPGKGLEWVSLIHTGGIFGVGGTSYADSVKGRFTISRDTSKNTVSLQMSSLRVEDTAIYFCAREHRGTIDAFDAWGQGTVVIVSS
VL: DIHMTQSPSSLSASVGDRVTITCRASQNIRNYLNWYQHKPGKAPKLLIYTTSRLQSGVPSRFSGSGSGTDFTLTVNSLQPEDFASYYCQQSYDGWTFGQGTKVEMK
B6: 6B4 (antibody, V domains shown)
VH: QVQLVESGGGVVQPGRSLRLSCAASGFRFNEFNMHWVRQAPGKGLEWVAVISIDGRHKYNADSVEGRFTISRDNSRNTLYLQMNSLRVEDTALYYCVTDGKAVDGFSGILEFWGQGTPVTVST
VL: EIVLTQSPATLSLSPGERATLSCWASQSVGGYLAWYQQKPGQAPRLLIYDASIRATGIPARFSGSGSGTHFTLTINSLEPEDFAVYYCQQRNNWPPLTFGGGTKVEIK
notes: human IgG; also called 6B4-biotin

Legend:
[1] = molecular target: T3, hCMV gB (expressed in HEK293T cells) (human cytomegalovirus, UniProt P06473 32-906); assay: cell-based or functional assay
[2] = molecular target: T3, hCMV gB (expressed in HEK293T cells); assay: cell-based or functional assay; remark: listed apart in the source
[3] = molecular target: T3, hCMV gB (expressed in HEK293T cells); assay: cell-based or functional assay; remark: listed apart in the source
[4] = molecular target: T3, hCMV gB (expressed in HEK293T cells); assay: competitor: 4H9-biotin; cell staining
[5] = molecular target: T3, hCMV gB (expressed in HEK293T cells); assay: competitor: 5F1-biotin; cell staining
[6] = molecular target: T3, hCMV gB (expressed in HEK293T cells); assay: competitor: 6B4-biotin; cell staining
[7] = molecular target: T3, hCMV gB (expressed in HEK293T cells); assay: competitor: 7H3-biotin; cell staining
[8] = molecular target: T3, hCMV gB (expressed in HEK293T cells); assay: competitor: 10C6-biotin; cell staining
[9] = molecular target: T3, hCMV gB (expressed in HEK293T cells); assay: competitor: 2B11-biotin; cell staining
[10] = molecular target: T4, hCMV gH + gL + UL128 + UL130 (co-expressed in HEK293T cells) (human cytomegalovirus, UniProt P12824 24-743; P16832 31-278; P16837 28-171; P16772 1-214); assay: cell-based or functional assay
[11] = molecular target: T4, hCMV gH + gL + UL128 + UL130 …; assay: cell-based or functional assay; remark: listed apart in the source
[12] = molecular target: T1, hCMV UL128 (expressed in HEK293T cells); assay: cell-based or functional assay
[13] = molecular target: T1, hCMV UL128 (expressed in HEK293T cells); assay: cell-based or functional assay; remark: listed apart in the source
[14] = molecular target: T2, hCMV gM + gN (co-expressed in HEK293T …); assay: cell-based or functional assay
[15] = molecular target: T2, hCMV gM + gN (co-expressed in HEK293T …); assay: cell-based or functional assay; remark: listed apart in the source

T3 sequence (P06473 32-906 limits assumed): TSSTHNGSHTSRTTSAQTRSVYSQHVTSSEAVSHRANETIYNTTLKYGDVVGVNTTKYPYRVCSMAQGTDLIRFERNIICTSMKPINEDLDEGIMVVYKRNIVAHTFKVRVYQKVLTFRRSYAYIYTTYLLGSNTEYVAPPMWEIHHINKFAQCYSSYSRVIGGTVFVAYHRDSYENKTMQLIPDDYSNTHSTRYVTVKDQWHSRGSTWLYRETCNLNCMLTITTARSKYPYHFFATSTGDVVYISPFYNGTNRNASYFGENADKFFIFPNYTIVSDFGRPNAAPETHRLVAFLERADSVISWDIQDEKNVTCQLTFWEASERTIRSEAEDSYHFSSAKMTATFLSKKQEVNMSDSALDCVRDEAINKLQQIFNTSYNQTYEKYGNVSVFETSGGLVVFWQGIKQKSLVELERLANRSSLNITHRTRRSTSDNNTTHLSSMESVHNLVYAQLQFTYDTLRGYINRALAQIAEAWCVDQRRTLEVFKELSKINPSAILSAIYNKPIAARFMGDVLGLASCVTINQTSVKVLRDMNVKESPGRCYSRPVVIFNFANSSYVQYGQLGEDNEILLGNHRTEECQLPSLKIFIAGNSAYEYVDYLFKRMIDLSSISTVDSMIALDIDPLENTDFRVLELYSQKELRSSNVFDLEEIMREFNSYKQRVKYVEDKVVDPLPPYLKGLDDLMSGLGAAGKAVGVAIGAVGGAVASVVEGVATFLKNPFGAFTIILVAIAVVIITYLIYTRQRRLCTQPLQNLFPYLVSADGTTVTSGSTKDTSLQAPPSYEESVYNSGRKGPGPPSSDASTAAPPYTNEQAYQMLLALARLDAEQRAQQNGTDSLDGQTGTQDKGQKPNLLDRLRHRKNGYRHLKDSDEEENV

Binder | 50% Neutralization ARPE [1] | 50% Neutralization MRC-9 [1] | 90% Neutralization ARPE [2] | 90% Neutralization MRC-9 [2] | 50% Neutralization BM-MSC [3] | 50% Neutralization Mo-DC [3] | Inhibition of binding (%) [4] | Inhibition of binding (%) [5] | Inhibition of binding (%) [6] | Inhibition of binding (%) [7] | Inhibition of binding (%) [8] | Inhibition of binding (%) [9] | also measured
B1 | ≤ 2 µg/mL | ≤ 2 µg/mL | 0.1 µg/mL | 0.5 µg/mL | 0.3 µg/mL | 0.05 µg/mL | 100% | 100% | 0% | 0% | 100% | 100% | 
B2 | ≤ 2 µg/mL | ≤ 2 µg/mL | 0.2 µg/mL | 0.75 µg/mL | 0.3 µg/mL | 0.02 µg/mL | 100% | 100% | 0% | 0% | 100% | 100% | 
B3 |  |  |  |  |  |  |  |  |  |  |  |  | 50% Neutralization ARPE [10]: < 0.01 µg/mL; 50% Neutralization MRC-9 [10]: > 2 µg/mL; 90% Neutralization ARPE [11]: 0.03 µg/mL; 90% Neutralization MRC-9 [11]: > 10 µg/mL
B4 |  |  |  |  |  |  |  |  |  |  |  |  | 50% Neutralization ARPE [12]: < 0.001 µg/mL; 50% Neutralization MRC-9 [12]: > 2 µg/mL; 90% Neutralization ARPE [13]: 0.008 µg/mL; 90% Neutralization MRC-9 [13]: > 10 µg/mL
B5 |  |  |  |  |  |  |  |  |  |  |  |  | 50% Neutralization ARPE [14]: ≤ 2 µg/mL; 90% Neutralization ARPE [15]: 10 µg/mL; 90% Neutralization MRC-9 [15]: 30 µg/mL
B6 | ≤ 2 µg/mL | ≤ 2 µg/mL | 0.15 µg/mL | 1 µg/mL | 2 µg/mL | 0.11 µg/mL | 0% | 0% | 100% | 0% | 0% | 0% | 

Source: patent US20170129940A1 (INSTITUTE FOR RESEARCH IN BIOMEDICINE, published 2017)
